# Measured values from patent US20130143822A1, “AGENTS FOR TREATING ALZHEIMER'S DISEASE” (priority 2010, published 2013).
# Tests used:
# [1] = target: Aβ1-42 oligomeric particles (Homo sapiens, UniProt P05067); assay: Dynamic light scattering, hydrodynamic radius of Aβ1-42 particles; assay type: biochemical; details: 5 μM Aβ1-42 oligomeric particles, 50 μM L3, immediately and after 20 minutes, 25° C.
# Procedure: Dynamic light scattering is used to determine the hydrodynamic radius of particles in solution or suspension. A 5 μM sample of Aβ1-42 oligomeric particles was diluted by adding a 50 μM L3 sample on the one hand, and buffer (50 mM sodium phosphate, 100 mM NaCl, pH 7.4) on the other hand. The hydrodynamic radius of the Aβ1-42 particles with and without L3 was measured using a DynaPro light scattering system, immediately after the sample was prepared and after 20 minutes. A 655.6 nm laser (13 mW/58% laser intensity) was used. The measuring time was 2 seconds, and the measurement temperature was 25° C. Spherical sedimented particles were assumed for calculating the hydrodynamic radius.
# Aβ1-42 oligomers = Aβ1-42 oligomers (Homo sapiens, UniProt P05067); assay: Surface plasmon resonance, Aβ1-42 monomers, oligomers and fibrils immobilized on a CM5 biosensor chip; assay type: binding
# Sequence of Aβ1-42 oligomers (P05067 672-713 limits assumed): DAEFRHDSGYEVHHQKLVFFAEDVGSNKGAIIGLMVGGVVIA
# Procedure: L3 is shown in section A and D3 is shown in section B of the figure. […] Aβ1-42 monomers (dashed lines), oligomers (solid lines) and fibrils (dotted line) were immobilized on a CM5 biosensor chip. Interaction analyses were carried out by means of surface […]. RU: resonance units. In each case, 25 μl peptide solution (100 μg/ml) was injected. […] The same results are also obtained for Aβ1-40 oligomers.
# Aβ [2] = target: T1, Aβ (Homo sapiens, UniProt P05067); assay: Turbidimetric test of Aβ aggregation (absorption at 355 nm); assay type: biochemical; details: 25 μM Aβ with 1 mM L3
# T1 construct: joint stock solutions made of 25 μM Aβ (light bars) and 25 μM Aβ with 1 mM L3
# T1 sequence (P05067 672-713 limits assumed): as above
# Procedure: (§1) Both tests were prepared from joint stock solutions made of 25 μM Aβ (light bars) and 25 μM Aβ with 1 mM L3 (dark bars). In the ThT test, 5 μl of the solutions was mixed with 200 μl ThT solution (5 μM ThT; 50 mM glycerin pH 8.5) and measured at λex 440 nm and λem=490 nm in the fluorescence spectrometer. ThT is a dye which, when bound to regular fibrils, has higher fluorescence and therefore serves as a measure of the fibrillation. In the turbidimetric test, the clouding of the solution was measured in the UV/VIS spectrometer as a measure of the aggregation as absorption at 355 nm.
# Aβ [3] = target: T1, Aβ; assay: Seeding test: amyloidogenic properties of Aβ-L3 aggregates by ThT fluorescence over time; assay type: biochemical; details: seeds 20% v/v added to freshly prepared Aβ, compared with Aβ without seeds
# Procedure: Amyloidogenic seeds are particles which act as “nuclei” and expedite the aggregation process. With regard to the aggregation of Aβ, it is known that existing Aβ oligomers/seeds considerably expedite the aggregation process of monomers. For the experiment, seeds were produced which consisted of Aβ (triangles) and such, which consisted of Aβ and L3 (squares). After incubating Aβ and A-L3 mixtures for 5 days, the seeds were centrifuged off and washed. The seeds (20% v/v) were added to freshly prepared Aβ in the ThT test. Aβ without seeds (rhombi) were measured for control purposes. […] This is an indication that Aβ-D3 aggregates no longer have amyloid structures.
# Aβ1-42 = Aβ1-42 (Homo sapiens, UniProt P05067); assay: Density gradient centrifugation (iodixanol gradient 5-50%) of Aβ-peptide mixtures, SDS-PAGE and silver staining; assay type: biochemical; details: 125 μM Aβ and 125 mM peptide
# Sequence of Aβ1-42 (P05067 672-713 limits assumed): as above
# Procedure: L3 precipitates Aβ oligomers from complex mixtures of different Aβ forms. The size distributions of Aβ in solution and in Aβ-peptide mixtures were examined by way of sedimentation analysis on an iodixanol gradient (5-50%). The mixtures contained 125 μM Aβ and 125 mM peptide, respectively. After centrifugation, 14 fractions of 140 μl each were obtained from the surface by sequential pipetting and analyzed by means of denatured polyacrylamide gel electrophoresis SDS-PAGE and subsequent silver staining. […] Large aggregates form, which in subsequent experiments are described as amorphous, not fibrillary and not amyloidogenic.
# Aβ [4] = target: T1, Aβ; assay: Thioflavin T test of Aβ aggregation; assay type: biochemical; details: 25 μM Aβ with 1 mM L3
# Procedure: as §1
# [5] = SPR, 25 μl peptide solution (100 μg/ml) injected
# Sequence of Aβ1-42 oligomeric particles (P05067 672-713 limits assumed): as above
substance,measurement,setting,value
"L3: L3 peptide, which according to the invention binds to Aβ oligomers (LRMMLQIKRIPR)",formation of large Aβ aggregates (hydrodynamic radius),[1],favorable in terms of the fast formation of large Aβ aggregates
same,binding to Aβ1-42 oligomers,Aβ1-42 oligomers; [5],very clear binding
same,maximum resonance (RU) compared with D3,Aβ1-42 oligomers; [5],higher maximum resonance than D3
same,binding strength compared with D3,"Aβ1-42 oligomers; SPR, FIG. 1",stronger binding than D3
same,binding to the Aβ peptide compared with peptide D3,Aβ1-42 oligomers; general statement,better binding
same,development of Aβ aggregates (clouding),Aβ [2],fast development of large Aβ aggregates
same,acceleration of Aβ aggregation by seeds composed of Aβ and L3,Aβ [3],do not result in any accelerated aggregation
same,content of Aβ oligomers after density gradient centrifugation,Aβ1-42,significantly reduce
same,reduction of Aβ oligomer content compared with D3,Aβ1-42; at the analyzed time,to a greater degree than D3
same,ThT test result of the Aβ aggregates (fibrillary structure),Aβ [4],negative
